Data published in US20120258099A1.

Molecular target: RhoA in NIH3T3 cells (UniProt Q9QUI0)
Test: cell-based or functional assay

Chain of RhoA in NIH3T3 cells (Q9QUI0 1-190 limits assumed): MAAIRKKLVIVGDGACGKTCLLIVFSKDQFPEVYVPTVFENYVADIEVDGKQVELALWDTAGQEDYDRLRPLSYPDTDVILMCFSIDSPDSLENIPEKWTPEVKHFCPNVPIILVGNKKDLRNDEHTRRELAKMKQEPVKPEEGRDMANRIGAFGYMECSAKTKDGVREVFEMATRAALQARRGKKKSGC

“GFP-Tgat (from UniProt P42212 1-238; O75962 1862-2101) (enzyme)” was tested, and the RhoA activation in intact cells, pull-down of RhoA-GTP with GST-RBD (fold over control) was 8.
